# Publication doi:10.1101/2020.04.03.022855 (bioRxiv, 2020)
# B1: Seventeen kilodalton protein (Skp), unlabelled (natural protein, Escherichia coli, UniProt P0AEU7 21-161, looked up)
# chain: ADKIAIVNMGSLFQQVAQKTGVSNTLENEFKGRASELQRMETDLQAKMKKLQSMKAGSDRTKLEKDVMAQRQTFAQKAQAFEQDRARRSNEERGKLVTRIQTAVKSVANSQDIDLVVDANAVAYNSSDVKDITADVLKQVK
# Target: the molecule itself
# Test: cross-linking
protein,measurement,value
B1,stoichiometry N,3
